{
  "source": "patent US20260008857A1",
  "about": "(FLAGSHIP PIONEERING INNOVATIONS VI, published 2026)",
  "binders": {"B1": {"name": "AB-9c (antibody, human IgG4 S228P, kappa)", "heavy": "not shown", "light": "DIVMTQSPLSLPVTPGEPASISCRSSQSLLYSLGYNYLDWYLQKSGQSPQLLIYLASNRASGVPDRFSGSGSGTDFTLKISRVEAEDVGFYYCMQSLQTPYTFGQGTKLEIKRTVAAPSVFIFPPSDEQLKSGTASVVCLLNNFYPREAKVQWKVDNALQSGNSQESVTEQDSKDSTYSLSSTLTLSKADYEKHKVYACEVTHQGLSSPVTKSFNRGEC", "notes": "hIgG4 WT, kappa"}, "B2": {"name": "AB-13c (antibody, human IgG4 S228P, kappa)", "heavy": "not shown", "light": "B1 light with L33H, Q98Y", "notes": "hIgG4 wild type, kappa"}, "B3": {"name": "AB-9d (antibody, human IgG1, kappa)", "heavy chain": "not shown", "light chain": "B1 light", "notes": "hIgG1 ('d')"}, "B4": {"name": "AB-1d (antibody, human IgG1, kappa, V domains shown)", "VH": "EVQLVESGGGLEQPGGSLRLSCAGSGFTFSDYAMTWVRQAPGKGLEWVSSISGSGGNTYYADSVKGRFTISRDNSKNTLYLQMNSLRAEDTAVYYCAKDALTIAIRPYYYGLDVWGQGTTVTVSS", "VL": "DIVMTQSPLSLPVTPGEPASISCRSSQSLDYSYGYNYLDWYLQKSGQSPQLLIYLASNRASGVPDRFSGSGSGTDFTLKISRVEAEDVGFYYCMQSLSTPYTFGQGTKLEIKR", "notes": "hIgG1 ('d')"}, "B5": {"name": "AB-12d (antibody, human IgG1, kappa)", "heavy chain": "not shown", "light chain": "B1 light with L33Q, Q98F"}},
  "key": {"[1]": {"target": "T1, human IL-4Rα (interleukin 4 receptor subunit alpha) (human, UniProt P24394 26-232, limits assumed)", "T1 sequence (looked up)": "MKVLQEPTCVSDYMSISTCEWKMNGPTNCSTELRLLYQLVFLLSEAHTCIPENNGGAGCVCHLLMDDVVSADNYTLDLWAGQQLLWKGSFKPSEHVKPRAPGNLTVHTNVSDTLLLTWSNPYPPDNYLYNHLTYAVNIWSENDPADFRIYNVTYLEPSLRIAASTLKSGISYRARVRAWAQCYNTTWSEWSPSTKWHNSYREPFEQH", "experiment": "indirect ELISA on plate-coated recombinant human IL-4Rα (2 ug/mL), anti-human IgG Fc-HRP, A450"}, "[2]": {"target": "T1, human IL-4Rα (interleukin 4 receptor …)", "experiment": "SPR, Carterra LSA non-regenerative capture kinetics; antibody captured on goat anti-human polyclonal lawn, human IL-4Rα as analyte, 25 C, 1:1 model; average ± SD of technical replicates"}, "[3]": {"target": "T2, IL-4Rα on human primary cells (primary B cells, whole blood B and T cells, PBMCs) (human, UniProt P24394 26-825)", "T2 sequence (looked up)": "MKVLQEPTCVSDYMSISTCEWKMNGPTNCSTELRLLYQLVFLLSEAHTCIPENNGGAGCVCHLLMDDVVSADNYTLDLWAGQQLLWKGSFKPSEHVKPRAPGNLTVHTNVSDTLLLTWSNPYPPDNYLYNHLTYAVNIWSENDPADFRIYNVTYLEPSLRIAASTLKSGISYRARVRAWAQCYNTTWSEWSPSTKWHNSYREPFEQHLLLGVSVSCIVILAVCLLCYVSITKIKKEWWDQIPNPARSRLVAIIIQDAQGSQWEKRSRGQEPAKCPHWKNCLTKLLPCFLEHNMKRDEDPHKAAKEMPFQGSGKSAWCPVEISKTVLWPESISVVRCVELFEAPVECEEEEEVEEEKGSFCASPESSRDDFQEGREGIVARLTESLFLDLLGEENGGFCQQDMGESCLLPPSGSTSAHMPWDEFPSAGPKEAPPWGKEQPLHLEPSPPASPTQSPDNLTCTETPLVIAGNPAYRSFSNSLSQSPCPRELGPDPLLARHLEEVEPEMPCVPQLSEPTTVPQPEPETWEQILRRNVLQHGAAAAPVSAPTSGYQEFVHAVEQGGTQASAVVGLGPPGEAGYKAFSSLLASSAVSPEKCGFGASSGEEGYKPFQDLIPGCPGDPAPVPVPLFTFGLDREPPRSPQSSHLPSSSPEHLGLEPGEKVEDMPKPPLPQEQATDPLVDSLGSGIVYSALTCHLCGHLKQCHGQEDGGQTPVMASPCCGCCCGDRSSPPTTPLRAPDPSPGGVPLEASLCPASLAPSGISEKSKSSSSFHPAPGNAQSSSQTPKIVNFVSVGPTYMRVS", "experiment": "cell-based or functional assay"}, "[4]": {"target": "T1, human IL-4Rα (interleukin 4 receptor …)", "experiment": "SPR, Biacore 8K+ multi-cycle capture kinetics; antibody captured on goat anti-human polyclonal surface, human IL-4Rα as analyte, 25 C, 1:1 model"}, "[5]": {"target": "T1, human IL-4Rα (interleukin 4 receptor …)", "experiment": "indirect ELISA on plate-coated recombinant human IL-4Rα (2 ug/mL), anti-human IgG Fc-HRP, A450", "remark": "listed apart in the source"}, "[6]": {"target": "T1, human IL-4Rα (interleukin 4 receptor …)", "experiment": "cell-based or functional assay"}},
  "note": "Positions count from the first letter of the chain named. Like-named read-outs stand apart in the source and are kept apart here.",
  "data": [
    {"binder": "B1", "values": [
      {"measurement": "EC50 (read off the curve)", "setting": "[1]", "result": "~0.02", "unit": "nM"},
      {"measurement": "Kd", "setting": "[2]", "result": 0.63, "unit": "nM"}
    ]},
    {"binder": "B2", "values": [
      {"measurement": "Inhibition of CD23 Expression by Primary B cells (IC50), Donor 13", "setting": "[3]", "result": 24.9, "unit": "nM"},
      {"measurement": "Inhibition of CD23 Expression by Primary B cells (IC50), Donor 52", "setting": "[3]", "result": 23, "unit": "nM"},
      {"measurement": "Inhibition of CD23 Expression by Primary B cells (IC50), Donor 53", "setting": "[3]", "result": 26.2, "unit": "nM"},
      {"measurement": "Inhibition of CD23 Expression by Primary B cells (IC50), Donor 56", "setting": "[3]", "result": 25.8, "unit": "nM"},
      {"measurement": "EC50 (read off the curve)", "setting": "[1]", "result": "~0.05", "unit": "nM"},
      {"measurement": "Kd", "setting": "[4]", "result": 0.0266, "unit": "nM"},
      {"measurement": "koff", "setting": "[4]", "result": "2.22e-05", "unit": "s⁻¹"},
      {"measurement": "kon", "setting": "[4]", "result": 836000, "unit": "M⁻¹ s⁻¹"},
      {"measurement": "Kd", "setting": "[2]", "result": "≤ 0.12", "unit": "nM"}
    ]},
    {"binder": "B3", "values": [
      {"measurement": "EC50 (read off the curve)", "setting": "[5]", "result": "~0.02", "unit": "nM"}
    ]},
    {"binder": "B4", "values": [
      {"measurement": "binding result", "setting": "[5]", "result": "binds"}
    ]},
    {"binder": "B5", "values": [
      {"measurement": "IC50 (read off the curve)", "setting": "[6]", "result": "~0.4", "unit": "nM"}
    ]}
  ]
}
